Legend:
[1] = target: GoxA precursor protein lacking CTQ (Marinomonas mediterranea); assay: SEC
[2] = target: active GoxA with mature CTQ (Marinomonas mediterranea); assay: SEC

Row | stoichiometry N (GoxB per GoxA precursor) [1] | stoichiometry N [2] | Substance
1 | 1 |  | GoxB (enzyme)
2 |  | 2 | active GoxA with mature CTQ (enzyme)

— PMC5076370
